Source: patent US20250011363A1, “OPTIMIZED SHORTENED PEPTIDE THAT BINDS TO ACETYLCHOLINE RECEPTOR, AND USE THEREOF” (SKINMED CO., LTD., priority 2021, published 2025)

Each binder was assayed against acetylcholine receptor (assay: SPR, AchR immobilised on chip, peptide at 10 uM).

| Binding affinity [RU] | Binder |
| --- | --- |
| 135 | KLYYRR [6mer-2-294] |
| 153 | KQQSKR [6mer-2-293] |
| 148 | KGISKR [6mer-2-308] |
| 121 | RQLCKR [6mer-2-292] |
| 139 | RSLSRR [6mer-2-297] |
| 141 | RWYYRK [6mer-2-299] |
| 147 | KVVTRK [6mer-2-311] |
| 149 | KWICKK [6mer-2-298] |
| 141 | RQFQKR [6mer-2-306] |
| 151 | KRRRRR [6mer-2-309] |
| 148 | KLISKR [6mer-2-283] |
| 146 | RLLQKK [6mer-2-289] |
| 135 | KWYRRK [6mer-2-296] |
| 153 | RWRLKK [6mer-2-300] |
| 154 | RRYRKR [6mer-2-291] |
| 122 | KSRLRK [6mer-2-288] |

| Binding affinity [RU] | Binder |
| --- | --- |
| 121 | KWRTKR [6mer-2-312] |
| 141 | RLRSKK [6mer-2-307] |
| 145 | KVRYKK [6mer-2-295] |
| 126 | KVFTKR [6mer-2-303] |
| 148 | KQICKK [6mer-2-302] |
| 149 | KLFQRK [6mer-2-310] |
| 122 | RQVRKR [6mer-2-301] |
| 139 | KRRYKK [6mer-2-286] |
| 142 | RRIQRR [6mer-2-285] |
| 154 | RWRTKR [6mer-2-313] |
| 151 | RQQYRK [6mer-2-282] |
| 135 | RQLYRK [6mer-2-290] |
| 154 | KQFYKK [6mer-2-305] |
| 124 | RLYLKR [6mer-2-287] |
| 144 | KWFYRK [6mer-2-304] |
| 151 | KLRSKR [6mer-2-284] |
